Residue numbers refer to the chain shown, from its start.
B1: anti-PTPRZ1 471_28z chimeric antigen receptor (on RNA CAR T cells) (protein, part only; not given: CD3zeta signalling domain, part only)
chain, part: MAEVQLVESGGGLVQPGGSLRLSCAASGFTFSSYSMNWVRQAPGKGLEWVSYISSSSSTIYYADSVKGRFTISRDNAKNSLYLQMNSLRAEDTAVYYCARPGYGDFPGAFDIWGQGTLVTVSSGGGGSGGGGSGGGGSTQSALTQPASVSGSPGQSITISCTGTSSDVGGYNYVSWYQQHPGKAPKLMIYEVSNRPSGVSNRFSGSKSGNTASLTISGLQAEDEADYYCSSYDWATYGSVFGGGTKLTVLGAAESKYGPPCPPCPFWVLVVVGGVLACYSLLVTVAFIIFWVRSKRSRGGHSDYMNMTPRRPGPTRKHYQPYAPPRDFAAYRS
B2: anti-PTPRZ1 scFv RRB473 conjugated to a rabbit Fc (Fc fusion)
scFv: MAQVQLVESGGGVVQPGRSLRLSCAASGFTFSSYAMHWVRQAPGKGLEWVAVISYDGSNKYYADSVKGRFTISRDNSKNTLYLQMNSLRAEDTAVYYCARDQDDSSDAFDIWGQGTLVTVSSGGGGSGGGGSGGGGSTQSVLTQPPSVSAAPGQKVTISCSGSSSNIGNNYVSWYQQLPGTAPKLLIYDNNKRPSGIPDRFSGSKSGTSATLGITGLQTGDEADYYCGTYDYIATRAVFGGGTKLTVLGAA
notes: scFv conjugated to a rabbit Fc for flow cytometry; also called scFv 473; not shown: rabbit Fc
B3: anti-PTPRZ1 scFv RRB476 conjugated to a rabbit Fc (Fc fusion)
scFv: B2 scFv with Y230W, I233K, A234V, T235S, A237L
notes: scFv conjugated to a rabbit Fc for flow cytometry; also called scFv 476; not shown: rabbit Fc
B4: anti-PTPRZ1 scFv RRB471 conjugated to a rabbit Fc (Fc fusion)
scFv: MAEVQLVESGGGLVQPGGSLRLSCAASGFTFSSYSMNWVRQAPGKGLEWVSYISSSSSTIYYADSVKGRFTISRDNAKNSLYLQMNSLRAEDTAVYYCARPGYGDFPGAFDIWGQGTLVTVSSGGGGSGGGGSGGGGSTQSALTQPASVSGSPGQSITISCTGTSSDVGGYNYVSWYQQHPGKAPKLMIYEVSNRPSGVSNRFSGSKSGNTASLTISGLQAEDEADYYCSSYDWATYGSVFGGGTKLTVLGAA
notes: scFv conjugated to a rabbit Fc for flow cytometry; not shown: rabbit Fc
B5: anti-PTPRZ1 scFv RRB469 conjugated to a rabbit Fc (Fc fusion)
scFv: MAQVQLVESGGGVVQPGRSLRLSCAASGFTFSSYAMHWVRQAPGKGLEWVAVISYDGSNKYYADSVKGRFTISRDNSKNTLYLQMNSLRAEDTAVYYCARGSGYSYGPGYDAFDIWGQGTLVTVSSGGGGSGGGGSGGGGSTNFMLTQPHSVSESPGKTVTISCTRSSGSIASNYVQWYQQRPGSSPTTVIYEDNQRPSGVPDRFSGSIDSSSNSASLTISGLKTEDEADYYCQSWDPVFGVFGGGTKLTVLGAA
notes: Flow cytometry was done with the scFvs conjugated to a rabbit Fc, detected with anti-rabbit IgG AlexaFluo488; also called scFv 469; not shown: rabbit Fc

Assays:
[1] = target: human PTPRZ1 extracellular portion (domains 1 plus 2) knocked in and shown on Ge518_PTPRZ1-KI cells (human) (UniProt P23471); experiment: cell-based or functional assay
Chain of human PTPRZ1 extracellular portion (domains 1 plus 2) knocked in and shown on Ge518_PTPRZ1-KI cells (human) (P23471 25-413 limits assumed): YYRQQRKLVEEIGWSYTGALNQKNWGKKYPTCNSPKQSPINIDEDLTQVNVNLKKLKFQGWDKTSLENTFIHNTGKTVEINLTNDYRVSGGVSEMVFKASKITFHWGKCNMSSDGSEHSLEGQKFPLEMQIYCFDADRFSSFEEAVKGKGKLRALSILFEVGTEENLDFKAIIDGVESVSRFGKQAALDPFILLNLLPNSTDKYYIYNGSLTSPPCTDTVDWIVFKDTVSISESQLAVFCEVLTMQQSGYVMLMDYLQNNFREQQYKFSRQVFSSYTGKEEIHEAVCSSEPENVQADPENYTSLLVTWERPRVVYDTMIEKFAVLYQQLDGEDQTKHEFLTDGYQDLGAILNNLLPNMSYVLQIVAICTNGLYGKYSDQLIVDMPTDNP

[2] = target: T1, human PTPRZ1 extracellular portion (domains 1 plus 2) knocked in and shown on Ge518_PTPRZ1-KI cells (human, UniProt P23471 25-413, limits assumed); experiment: flow cytometry on Ge518_PTPRZ1-KI cells, scFv conjugated to rabbit Fc, anti-rabbit IgG AlexaFluo488
T1 construct: domain: extracellular portion (domains 1 plus 2); parental Ge518 has low PTPRZ1 expression; also called receptor-type tyrosine-protein phosphatase zeta
T1 sequence (P23471 25-413 limits assumed): as above
Source text: The GBM cell line Ge518, obtained in our lab from a patient tumor resection, was used as a tumor model to evaluate CAR T cell efficacy. As PTPRZ1 expression was low in these cells, the antigen was overexpressed by introducing (knock-in) an extracellular portion (domains 1 plus 2) of the human PTPRZ1 molecule under the EF1a promoter, using a 3rd generation LV vector with puromycin selection.

Row | Binder | killing of Ge518 PTPRZ1-KI target cells by CAR T cells, E:T 3:1 [1] [%] | level of recognition (percent, flow cytometry) [2] [%]
1 | B1 | 80 | –
2 | B2 | – | ≥ 80
3 | B3 | – | ≥ 80
4 | B4 | – | ≥ 80
5 | B5 | – | ≥ 80

— US20260201068A1 (UNIVERSIT DE GEN VE, published 2026)
